Test results: patent US20090175892A1 (INSTITUT PASTEUR, published 2009)

B1: hTERT peptide analogue p444* (APRRLVQLL) (peptide)
peptide: APRRLVQLL
notes: Synthetic peptide (Epytop); also called optimized p444*

Tests used:
[1] = molecular target: T1, HLA-B*0702 molecule on HLA-B*0702 transfected TAP deficient T2 cells (T2-B7) (human); assay: MHC stabilization assay on T2-B7 cells, flow cytometry with ME.1; ratio of concentration giving 20% of maximal binding against reference peptide R10TV
T1 construct: MHC class I molecule without a defined peptide, on the surface of T2-B7 cells; its surface level was read with the anti-HLA-B7 mAb ME.1 by flow cytometry; also called HLA-B7
Experimental: The relative avidity of hTERT derived peptides for HLA-*B0702 was measured by using a MHC stabilization assay on HLAB0702 transfected T2 (T2-B7) cells in comparison with a reference peptide (R10TV) as described (Rohrlich et al. Int Immunol 2003; 15:765-72). Briefly, T2-B7 were incubated overnight at 2×10⁵ cells/well in 96-well plates in serum free medium AIM-V (Invitrogen Corp., Gibco), supplemented with 100 ng/ml of human β2-microglobulin, in the absence (negative control) or in the presence of either reference peptide […] or hTERT peptides at various final concentrations (100, 10, 1 and 0.1 μM). T2-B7 cells were labelled with a saturating concentration of ME.1 an anti-HLA-B7 mAb, then washed twice and finally stained with FITC-conjugated F(ab′)2 goat anti-mouse Ig before flow cytometry.

[2] = molecular target: T1, HLA-B*0702 molecule on HLA-B*0702 …; assay: MHC stabilization assay on T2-B7 cells, ME-1 staining; ratio of concentration inducing 20% of HLA-B*0702 expression against reference peptide CMV265-274
Excerpt: The protocol used has been described previously (Rohrlich et al., 2003).

relative avidity [1] [ratio] | RA (relative affinity) [2] [ratio] | Binder
0.4 | – | APSFRQVSCL (Synthetic peptide, minimum purity 80%) [hTERT peptide p68 (APSFRQVSCL, residues 68-77)]
0.4 | – | MPRAPRCRA (Synthetic peptide, minimum purity 80%) [hTERT peptide p1 (MPRAPRCRA, residues 1-9)]
– | 1.4 | B1
1.5 | – | RPSLTGARRL (Synthetic peptide, minimum purity 80%) [hTERT peptide p351 (RPSLTGARRL, residues 351-360)]
0.3 | – | APRCRAVRSL (Synthetic peptide, minimum purity 80%) [hTERT peptide p4 (APRCRAVRSL, residues 4-13)]
